Non-standard residues stand in square brackets, D forms with d.

This assay concerns the target αV integrin (human (endogenous in SV40 immortalized human chondrocytes)).

The molecule cyclo(RGD[dF]K) (also: conjugated to 3' end of Cy3-labelled 18-nt ssDNA) [cyclic peptide RGDfK (cRGDfK)] showed a tension gauge tether (TGT) assay: rupture of RGDfK-dsDNA tethers of 43 and 54 pN tension tolerance and loss of cell attachment, SV40 chondrocytes prechallenged with shear stress of more than 43 pN.

Source of the values: paper PMC7969741.
